Data published in the DeepSol protein solubility set.

Test: soluble on expression in E. coli; label from the status in PepcDB or PDB records

Sequence | soluble on expression in E. coli
MGSDKIHHHHHHMKFFDREKEIAEILHILNREPDDVYFIYGPINSGKTALINEIINNRLDKDKYVVFYFDLREIFISKYDDFIEVLFEEYEGNKKPVEIIKSLIKDVPSLCGIPAPKNTLEEILKKKTTKNVFRYITKVLMDIKKEGKQPILIIDELQKIGDMKINGFLIYELFNYFVSLTKHKHLCHVFCLSSDSLFIERVYNEAMLDGRAKYLLVDDFDKETALKFMDFLAKENNISLTNEDKELIYNYVGGKPKDIKYVVEESNFKDLKEVLDYLLNDEISKLDMFLEILDYSKPRVEVGNEVIEINKEDIIKALRLFKDKYEIPKKDIPTPVYVYLVKENILFLNPQKRILKPQSYLVWNAIKRLL | not soluble
MSLAKIVFCILDGLGDTTHTLPDGRKGTCLEMAKRPTLDAIAKAGTVGLNDSVSPGYPCGSDTAHLSLFGYPPFTYYNGRGAFEALGGGMDMEPGSIAFKSNFSTMYGECVKYRRCDRHFEVEGPILCKDLDGIKIPEFPEVKVSVVYATEHRCAVKILAPGLSDKIAGTDPIHDDLDLIKSYPLDDSPEAAYTAKVVNALSDTFRKALENHPINIERRKQGKEVANVILLRGPGMRLSCQPFGERHNIKAFLIAPTAIIAGLGISVGLPVIKVKGATGDMDSNFNAKAIAAAQELDGDKYDMGIIHMKGIDDAAHDGKIAVKTELIERADKAIHLLIEKLAELEEKNGDRFIVAVTADHSTSCTWKDHCFEPVPFIVAEVAKVAQELGIKHVDQSKKPELVPTDSVHEFTETAACKGSLGRFCGAQMMNLLFHFAGRKQEEGHHHHHH | soluble
MGSDKIHHHHHHAADWQLEKVVELSRHGIRPPTAGNREAIEAATGRPWTEWTTHDGELTGHGYAAVVNKGRAEGQHYRQLGLLQAGCPTAESIYVRASPLQRTRATAQALVDGAFPGCGVAIHYVSGDADPLFQTDKFAATQTDPARQLAAVKEKAGDLAQRRQALAPTIQLLKQAVCQADKSCPIFDTPWQVEQSKSGKTTISGLSVMANMVETLRLGWSENLPLSQLAWGKITQARQITALLPLLTENYDLSNDVLYTAQKRGSVLLNAMLDGVKPEANPNVRWLLLVAHDTNIAMVRTLMNFSWQLPGYSRGNIPPGSSLVLERWRNAKSGERYLRVYFQAQGLDDLRRLQTPDAQHPMLRQEWHQPGCRQTDVGTLCPFQAAITALGQRIDRSSAPAVAMVLP | not soluble
MCIIKPMDDVVKFIHEVGSLKLTPRSGWLKLGIRLPESVAEHSFRAAIIAFILALKSGESVEKACKAATAALFHDLHEARTMDLHKIARRYVSCDEEGAREEQLSWMESKPDFSDVEVYVSDADKLELAFQGVEYSQQVSYAIRFAENVELKTDAAKEIYRVLMERKNPVWWR | soluble
MGSDKIHHHHHHMVWRDLLEVIYKLDPKPGLGLEIAKHVQPKHLGIIAYLALSCDNLGEALIRYHDFHRLIYDGSPLVVELQGRYGSIRWEATELHPTQLTDEIAIALVIQFLRLFMSHEDVQLHEVRFLNAAPKNIRVYEQYFQCPVRFSQPRTELLIPITEIHKPLSSADHTLQQLLVQQAQALLEQLPNSTQLDQRLQHSILTGLQKNQYQIEYIAAQLGLSVRQLQRHLQQQSTTFQERVQQVRFMLATEYLKDPHLSLQEIALLLCYSEQSAFQRAFKHWTKQTPQQWRDQFLDKE | not soluble
STSLPQISTLMREKSVENKLKVKAKDDHMVPSGLYEVRAIQLPGGSWRHYYVDHSSKETYWILPYSHPDGASSHPLEKLPVYLPSYEECVDETNPLAVPEVCSPARD | soluble
DIVMTQSHKFMSTSVGDRVSITCKASQDVSTAVAWYQQKPGQSPKLLISWASTRHTGVPDRFTGSGSGTDYTLTISSVQAEDLALYYCQQHYTTPLTFGAGTKLELKRADAAPTVSIFPPSSEQLTSGGASVVCFLNNFYPKDINVKWKIDGSERQNGVLNSWTDQDSKDSTYSMSSTLTLTKDEYERHNSYTCEATHKTSTSPIVKSFNRN | soluble
QTLLNVTLESESMAVDEVVVSARRLNRNDLGISDKEMVSATQKVDMEKLIAAAPVVSIEEALQGQLGGVDIVLGGDPGSRSAIRIRGTSTLNASSDPLIVIDGVPYPTEISDDFNFSTATEEDLGALLNISPNDIASVEVLKDASATAIWGTQGANGVLVIKTKQGT | not soluble
AKVEVGDEVGNFKFYPDSITVSAGEAVEFTLVGETPHNIVFDIPAGAPGTVASELKAASMDENDLLSEDEPSFKAKVSTPGTYTFYCTPHKSANMKGTLTVK | soluble
MKVLVVGSGGREHALLWKAAQSPRVKRLYAAPGNAGMEALAELVPWNGDVEALADWALAEGIDLTLVGPEAPLVEGIADAFQARGLLLFGPTQKAAMIEGSKAFAKGLMERYGIPTARYRVFREPLEALAYLEEVGVPVVVKDSGLAAGKGVTVAFDLHQAKQAVANILNRAEGGEVVVEEYLEGEEATVLALTDGETILPLLPSQDHKRLLDGDQGPMTGGMGAVAPYPMDEATLRRVEEEILGPLVRGLRAEGVVYRGVVYAGLMLTREGPKVLEFNARFGDPEAQALLPLLENDLVELALRVAEGRLAGTRLSWKEGAAACVVLAAPGYPESPRKGIPLHVPEPPEGVLVFHAGTRREGGRLVSAGGRVLNVVGLGRDLKEALERAYAYIPQVGFPGAVYRRDIGRRALARLST | soluble
GMTESDRDYIQSIERGFAVLLAFDAQRPNPTLAELATEAGLSRPAVRRILLTLQKLGYVAGSGGRWSLTPRVLSIGQHYSESHALIEAAMPRLLEVAEKTQESASLGVLDGADVVYAARVPVRRIMSINVSVGTRVPAYATSMGRALLAWAPADVVERVVAESTFQKLGPETIGTAAELERELAKVREQGFALTSEELEKGLISLAAPVHDAGGTVVGVVACSTSSARNTPAQFREQAVPCVLAAAAALSADMGFAG | soluble
MIQVENLTKTINNQMILEDISIDIEKGKLTSLIGPNGAGKSTLLSAICRLIRFENGEVKIDGQLMSDYKNNDLSKKISILKQTNHTEMNITVEQLVNFGRFPYSKGRLTKEDHDIVNDALDLLQLQDIRNRNIKSLSGGQRQRAYIAMTIAQDTEYILLDEPLNNLDMKHAVQIMQTLKMLAHKMNKAIVIVLHDINFASCYSDQIVALKNGQLVKSDLKDNVIQSSVLSDLYDMNIQIEHIRNQRICLYFKD | not soluble
MGSDKIHHHHHHMVLVVDYGSQYSRLITRRIRENEVYSEVVFPDDKVDLSKVDAVILSGGPRSVYEEDAPKLPEWFQEYKGPVLAICYGMQLIVKELGGEVRRGRGEYGRTLVELSRDPIFEGIPEKVHVWMSHGDEVVRLPEGFHPIAVSETGVIAAATDGKRFWLLQFHPEVHHTEYGDRMISNFLFNVCKLEKNWKIGDLVEEKIRHIKETIGNKKAILALSGGVDSSVAAVLVHRAIGKNLVCVFVDHGLLRKNEREEVERVFKEHFDMNLVVVDARKRFLEKLRGVTDPEKKRKIIGEEFIRVFEEEAKKHDVEFLVQGTIYSDVIESAASGKTTAKIKSHHNVGGLPEKMNLKLVEPLRDLFKDEVRKVGKYLGIPDRIINRHPFPGPGLAVRVLGEVTEEKLEILREADYIFIETLRKHDYYDKVWQAFAVLLPIKSVGVKGDARAYEYVVALRAVNSVEGMTADWSRIPHDILDEAARRITREVKGVGRVVYDITSKPPATIEWE | not soluble
MLERQQDSFRFICRTCPFYYQVEGKMERKVFGLQKKQEADILGGDKQWELADQTDTLCPRCSHGKAYFFQMQTRSADEPMSTFYRCVHCGHQWKEN | soluble
MKLSATIAIILLNWNGWRDTVDCVESCRKLDYPNFRIVIVDNGSTDGSEAILRERFPDVELIQTGANLGFAGGNNAGIRHALVRGADYVWLLNNDTVVEPGALGALVRVAESDPRVGMVGSKIVYFDDPWLLWFAGAVIDPERPHRPFHRGLHERDTGQYDRVAETGYVTGCSLLARREMMAEVGMLDDDLFLYFEDADWSARAARAGWKLLYVPDSVVRHKESVSSGGAASPRLVYYTARNRLYFVRRNFPAKLAAALCYDLFEHVLVNVKKGRFPLAVAGCRGIRDFLAGKIGPMPLEHHHHHH | soluble
MSLEYKVEDVSPVKKKVNVTVPVEEVDAALGAAIAMYRTSVNLDGFRKGKVPASIVENRFRKEIYAEATQDLVNVHINEIVTSLAVSPLSRIDFDGGELERGKEFSYTISFEVMPQFDLPDYEGFAVEQEKAVVDEKEVDEVIARIRRNMAELVPVAETRPGADGDVVVLDFAAFENGEPIEGVSAENFQLSLGEKQSLEDFENLVKTIPAGQEAEGPITFPDDFLNPDFAGKTVTMKVKVHAVKERRLPEIDDALAQKAGGFESMEKMRETVVTSYMQSREQLHKATAQKSMLDKLLKMVDFALPESMVDMYVGNLIEDMRVKMERQGRGLESLGKTPEQLREQVLPEAQQIARSQIFLLAAGRKEAVEVSEQEVDGQLQQLAMRSGQDFDTLKDYYVRNGLIFNLRDRLIADKAMDAIYAKANVTMVDPAPAEGHHHHHH | soluble
MHHHHHHSSGVDLGTENLYFQSMIAKSFYDLSAINLDGEKVDFNTFRGRAVLIENVASLCGTTTRDFTQLNELQCRFPRRLVVLGFPCNQFGHQENCQNEEILNSLKYVRPGGGYQPTFTLVQKCEVNGQNEHPVFAYLKDKLPYPYDDPFSLMTDPKLIIWSPVRRSDVAWNFEKFLIGPEGEPFRRYSRTFPTINIEPDIKRLLKV | soluble
MSSNHPLDQLYRQVIMDHYKNPRNRGVLEGTNVDVNMNNPTCGDRIHLTMKVEDGKVADVKFEGEGCSISMSSASMMTQAIKGKTVEEALRLAHIFSDMIQGKEYDDSVDLGDIEALQGVSKFPARIKCATLAWKALEKGLHNHEHEGR | not soluble
MSLENISQKYSCSIVPLAEKKIFSVNDGLNVILKSLEDTKAEDIVSIDIQGKSSLADYMVIASAHSQRHVSSVADHLLRTWKDSGYGRASVEGLTEGNWVLIDTGDIIIHLFRPEIRLFYNLEKMWLTPDLNNTKLALFGDH | not soluble
MGSDKIHHHHHHMSISVKSNRALFDLDLLRAIVVVADCGSFTTAAARLHSTQSTISQKVRRLEDMVGHRLLVRGNRDVLPTDAGQTLLGYARHMLALNDQMLEALAGAMVGTTVRLGVPEDFVGGRTTNALSAFSRLHPQVKLEVTSGLCRDLSQAYDNGELDLVLLKQRRNSREGVACWPERLQWIDSARTPAFELDPIPLVTFPPRGLYREDMINAIEGMGRRWRISFTSSSLSGIQAAVADGMGISLLPPRAATGEHRVLGAGQGLPEVDSYEIVIVHRPTADVMVKALAEVMTQLLAGGGI | not soluble
MATPDVSVHMEEVVVVTTPDTAVDGSGVEGVKTVLVTTNLAPHGGDLTEDNMETENAAAAAAAAFTASSQLKEAVLVKMAEEGENLEAEIVYPITCGDSRANLIWRKFVCPGINVKCVQYDEHVISPKEFVHLAGKSTLKDWKRAIRMNGIMLRKIMDSGELDFYQHDKVCSNTCRSTKIDLSGARVSLSSPTSAEYIPLTPAAADVNGSPATITIETCEDPGDWTAAIGDDTFTFWRGLKDAGLLDEVIQEFHQELVETMRGLQQRVQDPPLQLRDAVLLNNIVQNFGMLDLVKKVLASHKCQMDRSREQYARDLAALEQQCDEHRRRAKELKHKSQHLSNVLMTLTPVSLPPPVKRPRLARATSGPAAMASQVLTQSAQLALGPGVPVPQLTSVPLGKVVSTLPSTVLGKGSLQAPPASSPASPLLGGYTVLASSGSTYPSTVEIHPDASSLTVLSTAAVQDGSTVFKVVSPLQLLTLPGLGPTLQNVAQASPGSSTIVTVPAGAAPGPEEHTATIEVAAMAEDHERK | not soluble
MGHHHHHHSHMAFCAILLVPSLCRMPSLPTSPWAFPVHWAGFMFKPLDWQGNDFFPPQDEVLAPCLGIKTPLKHEPCASLPFSVLFQSSASQSLLGTMGSLSPHLCGHTMCPVNPELPLSFQADHRSAQPDACSPLCHPSSLLPSFHTASLPFSIHAHHSPLPCDLDPPLYLAETVSLLEEWGPPSSCPMQCKLTSHPARLTHLPPCLWGFAVALKPSWAGLAPSLLPPPRMSLCRPLSFLRHQCPWLPWQAHQGLVPWSPSMVAAACIVSPSGHCRCQPFIPHVFLGHGGLTSVSGECG | not soluble
